No end group written: not given here.
T1: rat calcitonin C1a receptor (rat, UniProt P32214 25-516)
T1 sequence (looked up): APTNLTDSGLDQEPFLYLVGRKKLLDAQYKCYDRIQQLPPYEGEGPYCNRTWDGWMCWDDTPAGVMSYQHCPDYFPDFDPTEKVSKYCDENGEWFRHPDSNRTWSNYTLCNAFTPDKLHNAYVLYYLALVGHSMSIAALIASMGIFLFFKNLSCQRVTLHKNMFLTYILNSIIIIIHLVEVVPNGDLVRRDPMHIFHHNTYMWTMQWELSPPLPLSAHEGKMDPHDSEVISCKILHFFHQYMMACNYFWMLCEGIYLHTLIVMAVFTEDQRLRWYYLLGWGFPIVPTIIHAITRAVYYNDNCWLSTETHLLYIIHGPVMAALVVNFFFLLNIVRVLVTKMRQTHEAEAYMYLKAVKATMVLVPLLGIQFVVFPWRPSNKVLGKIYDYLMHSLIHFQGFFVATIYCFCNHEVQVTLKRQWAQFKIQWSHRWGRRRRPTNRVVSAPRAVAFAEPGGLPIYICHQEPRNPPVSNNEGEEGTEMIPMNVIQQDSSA

T2: calcitonin receptors (human T47D / MCF7 breast carcinoma cells) (human, UniProt P30988 25-474)
T2 sequence (looked up): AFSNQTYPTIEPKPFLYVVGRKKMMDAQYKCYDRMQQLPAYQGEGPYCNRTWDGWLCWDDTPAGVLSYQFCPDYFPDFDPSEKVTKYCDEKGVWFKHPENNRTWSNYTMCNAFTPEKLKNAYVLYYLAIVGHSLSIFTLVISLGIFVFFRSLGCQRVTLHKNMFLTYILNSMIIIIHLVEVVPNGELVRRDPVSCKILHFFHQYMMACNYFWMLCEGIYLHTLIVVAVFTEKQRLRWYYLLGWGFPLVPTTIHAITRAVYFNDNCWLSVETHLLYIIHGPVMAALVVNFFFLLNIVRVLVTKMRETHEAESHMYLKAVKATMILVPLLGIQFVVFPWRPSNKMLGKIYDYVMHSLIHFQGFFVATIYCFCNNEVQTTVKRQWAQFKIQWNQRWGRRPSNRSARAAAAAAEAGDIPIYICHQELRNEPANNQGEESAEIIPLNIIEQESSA


What was measured:
[1] = target: T1, rat calcitonin C1a receptor; assay: cell-based or functional assay
[2] = target: T3, amylin receptors (rat nucleus accumbens membranes) (rat); assay: radioligand competition vs 125I-BH-rat amylin, rat nucleus accumbens membranes
T3 construct: Assayed as a tissue membrane preparation, not on intact cells; also called amylin (nucleus accumbens) receptors

[3] = target: T2, calcitonin receptors (human T47D / MCF7 …); assay: cell-based or functional assay

IC50 [2] [nM]	Binder	further results
–	LSTCVLGRLSQELHRLQTYPRTNTGSNTY (not fully specified) [Compound 1]	EC50 of adenyl cyclase stimulation, HEK293 cells stably transfected with rat calcitonin C1a receptor [1]: 0.97 nM
0.066	LSTAVLGRLSQELHRLQTYPRTNTGSNTY-NH2 (not fully specified) [Compound 4]	–
0.092	LSTSVLGRLSQELHRLQTYPRTNTGSNTY-NH2 [Compound 5]	–
–	XLSTAVLGRLSQELHRLQTYPRTNTGSNTY (acetylated with acetic anhydride (site not given)) [Compound 6]	fold lower potency than human calcitonin, adenylyl cyclase, MCF7-7 cells [3]: 80 fold
